Data: US6010856, “Assay systems and methods for measuring P38 map kinase, and modulators thereof” (The Scripps Research Institute)

Tests used:
[1] = target: MEF2C phosphorylated by p38 (UniProt Q06413-3 Q06413-3:1-441); assay: EMSA; p38 phosphorylation did not reduce binding but decreased complex mobility; settings: tags: in vitro translated then treated with recombinant p38; label: 32P
Text: (§1) Members of the MEF2 family bind to conserved A/T-rich DNA sequences—CTA[A/T]_4TAG/A—found in the regulatory regions of many muscle-specific genes (Y. -T. Yu et al., Genes and Develop. 6, 1783 (1992). Binding of MEF2C to the consensus site can be detected by electrophoretic mobility-shift analysis (EMSA) (J. F. Martin et al., Proc. Natl. Acad. Sci. USA, 90, 5282 (1993); J. C. McDermott et al., Mol. Cell. Biol. 13, 2564 (1994); D. Leifer et al., Proc. Natl. Acad. Sci. USA 90, 11546 (1993)). To test whether the phosphorylation of MEF2C alters MEF2C binding to its consensus DNA binding site the mobility of the MEF2C-DNA probe complex formed by MEF2C before and after its treatment with wtp38 was compared (FIG. 3).
(§2) Binding of MEF2C to oligonucleotides containing the MEF2 consensus site determined by electrophoretic mobility-shift assay (EMSA). The oligonucleotide probe was double-stranded ^32P-labeled oligonucleotide containing the MEF2 consensus binding site (Oligonucleotides sequence, MEF2C: GATCGCT CTAAAAATAACCCTGTCG (SEQ ID NO: 1); MEF2Cmut: […] (SEQ ID NO: 2)) and the positions of free probe (F) and of bound probe (B_1 and B_2) are indicated by arrows. […]

MEF2C = MEF2C (UniProt Q06413-3 Q06413-3:1-441); assay: EMSA; complexes B1 and B2; settings: tags: in vitro translated from MEF2C cDNA; label: 32P
Chain of MEF2C (Q06413 other isoform, or with tags, fused parts or gaps): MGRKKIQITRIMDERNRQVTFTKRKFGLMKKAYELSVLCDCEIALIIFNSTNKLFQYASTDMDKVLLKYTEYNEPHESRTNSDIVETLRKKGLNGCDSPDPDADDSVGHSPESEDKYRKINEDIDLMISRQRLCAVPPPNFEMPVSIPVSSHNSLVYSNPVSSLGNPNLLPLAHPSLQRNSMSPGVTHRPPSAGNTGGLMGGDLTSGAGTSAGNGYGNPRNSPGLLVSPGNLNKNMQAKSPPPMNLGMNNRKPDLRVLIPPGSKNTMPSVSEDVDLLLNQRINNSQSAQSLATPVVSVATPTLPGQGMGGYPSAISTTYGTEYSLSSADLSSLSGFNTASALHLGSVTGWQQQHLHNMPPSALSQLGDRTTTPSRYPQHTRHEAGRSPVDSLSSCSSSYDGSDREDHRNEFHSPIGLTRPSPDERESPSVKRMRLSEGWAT
Text: as §1, §2

Chain of MEF2C phosphorylated by p38 (Q06413 other isoform, or with tags, fused parts or gaps): as above

B1: MEF2C consensus site probe (dsDNA)
DNA 1: GATCGCTCTAAAAATAACCCTGTCG
DNA 2: CGACAGGGTTATTTTTAGAGCGATC
[1]
  binding result: binds
MEF2C
  binding result: binds
